# Measurements reported in a protein production outcome set (Wang et al. 2014).
# Assay: label from the status in PepcDB records
row,Sequence,protein production
1,MEFRFENLLGAPYRGGNAVITKNTQLISPVGNRVSVTDLSKNHSVTLPLETSTNICRLASSPDGTFLLAVDEQNRCLFINLPRRVVLHRITFKDKVGALKFSPNGKFIAVGIGKLVEIWRSPGFRRAVLPFERVRTFANSDDKVVSLEWSLDSDYLLVGSRDLAARLFCVRKLKGVLNKPFLFLGHRDSVVGCFFGVDKMTNKVNRAFTIARDGYIFSWGYTEKDVKMDESEDGHSEPPSPVTPDRADEVMVENGGGVGTELKKRKEYDGKGLESDEEGDDDDEEYMHRGKWVLLRKDGCNQASAKVTACDYHQGLDMVVVGFSNGVFGLYQMPDFICIHLLSISRQKLTTAVFNERGNWLTFGCAKLGQLLVWDWRTETYILKQQGHYFDVNCVTYSPDSQLLATGADDNKVKVWNVMSGTCFITFTEHTNAVTALHFMADNHSLLSASLDGTVRAWDFKRYKNYKTYTTPTPRQFVSLTADPSGDVVCAGTLDSFEIFVWSKKTGQIKDILSGHEAPVHGLMFSPLTQLLASSSWDYTVRLWDVFASKGTVETFRHNHDVLTVAFRPDGKQLASSTLDGQINFWDTIEGVLMYTIEGRRDIAGGRVMTDRRSAANSSSGKCFTTLCYSADGGYILAAGTSRYICMYDIADQVLLRRFQISHNLSLDGVLDFLHSKKMTEAGPIDLIDDDNSDEEGGIDKQSRGNLGYDLPGSRPNRGRPIIRTKSLSIAPTGRSFAAATTEGVLIFSIDDTFIFDPTDLDIDVTPEAVEAAIEEDEVSRALALSMRLNEDSLIKKCIFAVAPADIKAVAISVRQKYLERLMEALVDLLENCPHLEFILHWCQEICKAHGSSIQRNYRTLLPALRSLQKAITRAHQDLADMCSSNEYTLRYLCSVPNNH,failed
2,MEFVLASASPARRRLLQGIGINPIVHVSHFDESQIHHDDPAQLVEALAAAKAKTVAQHRQDALILGCDSVLHVRGEILGKPASPTEAIARWQTMRGHYGLLYTGHALVDQTQNQLLVRHGVTKVYFAAIDDDTIAAYVRSGEPLQCAGCFALEGKGGLFIEKIEGCHSNVIGLSLPLLREMLAHLGYTVQTLWP,failed
3,MEGAEEAGAEIAVDSKDLQQQSKAFDKLTDRVEDRQLDSSRVQSAMASIAASREADLNAKRLREKELASVKINPADVEFIVNELEIEKNVAERTLREHKGDAVAATRQLLSRYPL,failed
4,MEGIVSIVFSTYNNREKALKCIESCLKQKYNKLFVIVADDGSNDGSQELFKKIQEKDSRFKFIPLVHKERGIARGKAISLAKKLESEYIYIIDSDMILEDNLIEKCMSFFNKNKNVGALIVPEYAFSEYENFYSKVKVFERNIINNSGEDMGKNSIEAARFWRMDAYDLSGGINPSQISFEETQPTIRYVEKGGVVKRAVFTKVYHDEKFVTLRNLLKKKMYYFSVMDKTIQSEEGGFIKTLKRWYFFRPVLYRGSNLKRYLRHPILTIGMINMYVILTLVGVSQILKRKK,failed
5,MEGNCSQGRFDSQVSSMRDLRPNAINQNQKQHHPNSRQDSGFNNTMDTRHNNVDRGKKSMSEDDELCLLSSDGQNKSKENSPWQRVKWMDKMVKLMITALSYIGEDSGSDKKFAVLQKKGKWRSVSKVMDERGYHVSPQQCEDKFNDLNKRYKKLNEMLGRGTSCEVVENPSLLDKIDYLNEKEKDEVRRIMSSKHLFYEEMCSYHNGNRLHLPHDPAVQRSLHLITLGSRDDHDNDEHGKHQNEDLDDDDDYEEDHDGALSDRPLKRLRQSQSHEDVGHPNKGYDVPCLPRSQADVNRGISLDSRKAAGLQRQQIESKSLELEGRKLQIQAEMMELERQQFKWEVFSKRREQKLAKMRMENERMKLENERMSLELKRIELGAKL,failed
6,MEGSIASRARLPRATQMAVATLDTNPRMRRPPREPAPPPSPLHQLVVTLATGKWLLLAVALLGGILAGLAGFTRPVLFEAATQIIIDAPSTGTANATATAQDSLDSSIDDHLTMLSSQAHLRRVLTALRQPQAADAAGKSGISAVPPTSGSFVGNLLSRVWSKGGPAAESPEAVDAAALKTLRSGMRVGQELRSRVITIGFTDTSPVRAALVANTFAQVYIEDLVQKRRASDQRELESLVASLPQVQRDLVDATDRLETYRLTHGAVDQSAANNAANETAELGRQIFLSKANLSASESRLRHIEDLRKAGAPVSAIAEEIGSPVLTDLVARQSGAAADGDLGTAINREIEQGIARIAAEANVYRAQVAALEDRKRVRDAAVADTASQLSGLRALEPQVTIVTQHYNELLGRQQDLIRRIAAPSPGVAVLSTAWPPSNPITLPRIFLVPPGMIVFGLMAAVFVLVRNMFNQTLRSEAEAEAELGIPCVGLLPKVSGLHARQLRHLVLVQQNSPFSRAATSLLVTAAPTQGKGQPPHMILVTSSILDDGKTELAWSLALAATRLGGRVLFLDLDRKDARLTNEFRGEFGTIKAHNSFGDYVSERCVLQDAITRMPEIGIDLMAAPGPSEDLLTLLSTVDKSQFTEELLSVYDVVIINGPLGLGGPETRLLKRWADAVLFAVRWAKTRRSIARGVLESLRAGGSVTVPIGSVLTQVNLKRYAGSRLDDNADLLLERV,failed
7,MEGSIDHHVRKAIQIGVNPLQAIQMASLNAAECFKLAKKGAIAPGFTADLLFIEDLQSLAITHVFKNGTCVAKNGKLIVPLEHHHHHH,failed
8,MEGSLSRGVEIMKLRELVARSRSIRRFDEHVAVNDATLRDLVELVCYTPSAANRQLLRFLPVTGADMSDKVFPCLKWAGYLEDWPGPEPGERPAAALVMLCRNEDLPGAACDSGIAAQTIMLGAAEKELGGCIVAAIDRERLMASLGIPDAWTVLLVIALGKPAETVVIDQIKPGDDIRYWRDKHGIHHVPKRQVDELLVTAEQLRERG,not failed
9,MEGTVFTPCLEGMKHVKSDQGEMLTKPFLELCKTILPVIDKFGAAMTLVKSDIGGNITRLEKNYLSDPDKFKYLYTFVQVEIESKIAKGSSSCTNGLLWLTRAMDFLVELFRNLVAHQDWSMPQACADSYQKTLKKWHGWLASSTFSMALKLAPDRKKFMDVISGSGNIQADMERFCAEFGPFLHDNHKFLASVGMDDMKAS,not failed
10,MEHASKRDTMAPSGTIPGNGGVNAPSAARVDWVDYAKGICIVMVVMMHSVLGVELAAGETGFMHVAVAFAKPFRMPDFFLISGLFLSLVIDRDWRTYLDRKVVHFAYFYVVWVTIQFGFKAPAFAAETSWREVGLLYLESFIEPFGTLWFIYLLPVFFVVTKLTRRVPPLAIWLIAAALETARIATGWTAIDEFCARFVYFYSGYLFAPYVFALSDRARSHPGPALAALATWALINAGLVAYGASEWKVVSLVLGFAGACAIITMGTLLARAQWLNFFRFCGEHSIVIYLAFFLPMAATRTLLLRTGVIPDIGTVSLIVTIAGVLGSLAIWQAALRLGADFLFERPDAFWIAPKKAGVRLQAAE,failed
11,MEHSSMPLWLSSFEEEIDTYIFISSRDNKLYLGILRTYDQHGNVFLTHCVEKIIVPEKNYFSDVYVGNLIIRGDNIAYFGSVDEEKYCKMFDYTIKNDNDEEHNNMDMIKNKKEYSSSENIILVYKPINHILKFIPENNADSSIFEN,failed
12,MEIFLWKDNRFHHQLRLLWHMCRGRNGTACLLLMKHFAAVRYLKLCTNHLWEVAGNMMNSNMNRRNVQYRQDRQPMPQPAVQPQCQPSCQTCPGTCNDGSMMTGNNGNPQMMPAGGPGPERRPMPVPDHQTLMNEIYQLGFAIVETVLYLDTHPSDADALNYYNQIKRRYSHVMEMYSREYGPLLNTNVMNDNYWSWVATPMPWEVEGC,failed
13,MEIGIIGTGNIGGTLARKLIAAGHQVRVANSKGIHGVQSFADEIGATAVDVYGAVKGADAIILSIPLPALASLPNGFFDDLPETVPLIDTSNYYPGLRDPLIPEIDDGMTESVWVSQQLSHPVIKAFNNILAWSLAELGTPKGSASRLAIAVAGDNATLKQIVMNLVDDTGFDAIDAGSLEESWRQQPSTPAYCCDYDAETMKKGLTAAVRGEAASKRDRLPLEHHHHHH,failed
14,MEIKQPAELSHVLTMTHRNLLKMWHNPDNVSDVVIQPIIFTLLFGYLFGGAIAGSVQAYLPMLVTGILIQSILNAASGSGQQLREDINAGVFDRFKTLPISPIVPLAGQLVGDVFRLLISGLMALVTAFMMGWRPIVSPLVLIGVLLLAVFVGWSLSWVFALVGLMVKNAALIGSLSMIIILVLTFLSNAFIPTKTLPHLLQTIVRLNPVSLTITAMRTILRTGHWGPDAFGVLLSGFLIIVIFMPLTVLAYRRFG,failed
